According to US20220033501A1 (SHANGHAI PHARMAEXPLORER, published 2022):

What was measured:
[1] = target: T1, TIM-3 protein on human peripheral blood mononuclear lymphocytes (PBMC) (human, UniProt Q8TDQ0 22-301); experiment: cell-based or functional assay
T1 sequence: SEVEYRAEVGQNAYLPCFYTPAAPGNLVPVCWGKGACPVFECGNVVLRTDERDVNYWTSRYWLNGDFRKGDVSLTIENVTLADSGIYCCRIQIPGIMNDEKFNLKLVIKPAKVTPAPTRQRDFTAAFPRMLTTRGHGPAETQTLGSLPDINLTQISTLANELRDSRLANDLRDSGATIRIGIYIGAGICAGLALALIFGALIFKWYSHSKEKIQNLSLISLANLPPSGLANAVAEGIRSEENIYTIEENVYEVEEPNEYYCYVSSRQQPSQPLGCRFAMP

[2] = target: T2, human TIM-3 on CHOK1 stable cell line (CHOK1-hTIM-3) (human, UniProt Q8TDQ0 22-301); experiment: FACS, CHOK1-hTIM-3 cells, 1.6 nM antibody
T2 sequence: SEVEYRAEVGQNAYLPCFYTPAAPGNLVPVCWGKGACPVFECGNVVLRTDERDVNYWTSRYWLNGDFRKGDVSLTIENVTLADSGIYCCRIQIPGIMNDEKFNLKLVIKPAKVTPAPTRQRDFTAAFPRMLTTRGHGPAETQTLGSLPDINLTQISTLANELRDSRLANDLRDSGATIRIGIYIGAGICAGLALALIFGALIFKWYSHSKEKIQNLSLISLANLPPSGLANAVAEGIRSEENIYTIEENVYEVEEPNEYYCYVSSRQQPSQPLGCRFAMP

[3] = target: T3, monkey TIM-3 on CHOK1 stable cell line (CHOK1-cTIM-3) (monkey); experiment: FACS, CHOK1-cTIM-3 cells, 1.6 nM antibody
T3 chain: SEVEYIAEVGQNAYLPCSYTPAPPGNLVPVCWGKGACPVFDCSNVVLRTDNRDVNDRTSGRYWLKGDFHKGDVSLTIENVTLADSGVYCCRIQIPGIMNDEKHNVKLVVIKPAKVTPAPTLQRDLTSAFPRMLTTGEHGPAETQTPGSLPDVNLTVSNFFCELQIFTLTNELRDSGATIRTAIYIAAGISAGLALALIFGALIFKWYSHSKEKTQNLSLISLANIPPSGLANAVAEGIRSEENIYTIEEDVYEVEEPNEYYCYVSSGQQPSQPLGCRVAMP

[4] = target: T2, human TIM-3 on CHOK1 stable cell line …; experiment: FACS, CHOK1-hTIM-3 cells, 0.32 nM antibody
[5] = target: T2, human TIM-3 on CHOK1 stable cell line …; experiment: FACS, CHOK1-hTIM-3 cells, 0.064 nM antibody
[6] = target: T4, murine TIM-3 extracellular domain protein with hFc tag (mTIM-3-hFc) (mouse, UniProt Q8VIM0 29-191); experiment: ELISA, coated mouse TIM-3 ECD protein, 0 nM antibody
T4 construct: also called mouse TIM-3 extracellular domain protein; not shown: human IgG Fc fragment (hFc) of the pCpC vector
T4 chain: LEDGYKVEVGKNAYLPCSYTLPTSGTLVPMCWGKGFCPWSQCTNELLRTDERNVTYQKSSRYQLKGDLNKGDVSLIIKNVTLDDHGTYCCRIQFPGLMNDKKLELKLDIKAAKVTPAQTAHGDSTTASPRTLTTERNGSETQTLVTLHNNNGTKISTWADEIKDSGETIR

[7] = target: T5, human TIM-3 extracellular domain protein with hFc tag (hTIM-3-hFc) (human, UniProt Q8TDQ0 22-200); experiment: ELISA, coated human TIM-3 ECD protein, 0.0067 nM antibody
T5 construct: not shown: human IgG Fc fragment (hFc) of the pCpC vector
T5 sequence: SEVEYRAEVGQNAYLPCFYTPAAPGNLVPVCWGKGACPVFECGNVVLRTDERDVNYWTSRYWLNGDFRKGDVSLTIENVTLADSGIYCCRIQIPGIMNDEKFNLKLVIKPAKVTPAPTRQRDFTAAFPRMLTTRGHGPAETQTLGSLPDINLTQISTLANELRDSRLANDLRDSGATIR

[8] = target: T4, murine TIM-3 extracellular domain …; experiment: ELISA, coated mouse TIM-3 ECD protein, 0.6667 nM antibody
[9] = target: T4, murine TIM-3 extracellular domain …; experiment: ELISA, coated mouse TIM-3 ECD protein, 6.6667 nM antibody
[10] = target: T6, monkey TIM-3 extracellular domain protein with hFc tag (cTIM-3-hFc) (monkey); experiment: ELISA, coated monkey TIM-3 ECD protein, 0.0007 nM antibody
T6 construct: not shown: human IgG Fc fragment (hFc) of the pCpC vector
T6 chain: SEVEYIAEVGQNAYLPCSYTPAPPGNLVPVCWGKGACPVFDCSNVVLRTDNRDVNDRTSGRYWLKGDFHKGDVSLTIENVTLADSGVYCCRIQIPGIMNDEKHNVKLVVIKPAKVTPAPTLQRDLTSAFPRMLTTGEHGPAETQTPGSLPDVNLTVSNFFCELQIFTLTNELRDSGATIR

Binder | IFN-γ production (donor X); antibody 0.1 µg/ml, N = 1 [1] [pg/mL] | IFN-γ production (donor X); antibody 0.1 µg/ml, N = 2 [1] [pg/mL] | IFN-γ production (donor X); antibody 1 µg/ml, N = 1 [1] [pg/mL] | IFN-γ production (donor X); antibody 1 µg/ml, N = 2 [1] [pg/mL] | IFN-γ production (donor X); antibody 10 µg/ml, N = 1 [1] [pg/mL] | IFN-γ production (donor X); antibody 10 µg/ml, N = 2 [1] [pg/mL] | IFN-γ production (donor X); antibody '0' (4th head as printed), N = 1 [1] [pg/mL] | IFN-γ production (donor X); antibody '0' (4th head as printed), N = 2 [1] [pg/mL] | IFN-γ production (donor X); antibody '0' (5th head as printed), N = 1 [1] [pg/mL] | IFN-γ production (donor X); antibody '0' (5th head as printed), N = 2 [1] [pg/mL] | Mean fluorescence intensity [2] | Mean fluorescence intensity [3] | Mean fluorescence intensity [4] | Mean fluorescence intensity [5] | OD450 [6] | OD450 [7] | OD450 [8] | OD450 [9] | OD450 [10]
34B6D8 fully human TIM-3 antibody (human IgG4, kappa) (antibody, V domains shown) VH: EVQLVESGGGLVQPGGSLRLSCAASGFTFSTYWMTWVRQAPGKRLEWVANIKQGGGDKYYVDSVKGRFTISTDNAKNSLYLQMNSLRAEDTAVYYCARGSNWFDPWGQGTLVTVSS VL: EIVMTQSPATLSMSPGERATLSCRASQSVYDNLAWYQQKPGQAPRLLIYGASTRATGIPARFSGSGSGTEFTLTISSLQSEDFALYYCQQYTHWPITFGQGTRLEIK | 2770 | 2820 | 2930 | 3550 | 2980 | 3330 | 2600 | 2540 | 2280 | 2390 | 212 | 266 | 76.9 | 22.2 | 0.24 | 0.29 | 0.27 | 0.44 | 0.19
39E5H1 fully human TIM-3 antibody (human IgG4, kappa) (antibody, V domains shown) VH: EVQLVESGGGLVQPGGSLRLSCAASGFTFSSYWMSWVRQAPGKGLEWVANIKRGGSERYYVDSVKGRFTISGDNAKNSVYLQMNSLRAEDTAVYYCARGSNWFDPWGQGTLVTVSS VL: ETVMTQSPAILSVSPGERATLSCRASQSVYSNLAWYQQKLGQAPRLLIYDASTRATGIPARFSGSGSGTEFTLTISSLQSEDFAVYYCQQYNNWPITFGQGTRLEIK | 2700 | 2880 | 3070 | 3000 | 3150 | 3130 | 2580 | 2460 | 2190 | 2370 | 191 | 315 | 73.1 | 27 | 0.24 | 0.25 | 0.26 | 0.41 | 0.18
